The subject of this data set is NC(=O)C[C@H](N)C(=O)O. Nature of the data set: Nessler ammonia assay, OD436; Lineweaver-Burk. It counts as biochemical, Mycobacterium gordonae. As to conditions: 50 mM PBS pH 8.0, 37 °C, 2 min, 1-20 mM substrate.

This passage reports Km and kcat results from PMC8617759, “Characterization of a Novel L-Asparaginase from Mycobacterium gordonae with Acrylamide Mitigation Potential” (Foods, 2021).

For the substance “GmASNase (Mycobacterium gordonae L-asparaginase) (Mycobacterium gordonae)”, the Michaelis-Menten constant (Km) worked out at 6.025 mM and the kcat is listed as 11,864.71 min^-1.

By Km is commonly meant the concentration of substrate that gives half-maximal velocity.
